Measured values as given in US20240301061A1.

B1: chimeric sp34 (antibody, V domains shown)
VH: EVQLVESGGGLVQPKGSLKLSCAASGFTFNTYAMNWVRQAPGKGLEWVARIRSKYNNYATYYADSVKDRFTISRDDSQSILYLQMNNLKTEDTAMYYCVRHGNFGNSYVSWFAYWGQGTLVTVSS
VL: QAVVTQESALTTSPGETVTLTCRSSTGAVTTSNYANWVQEKPDHLFTGLIGGTNKRAPGVPARFSGSLIGDKAALTITGAQTEDEAIYFCALWYSNLWVFGGGTKLTVL
B2: humanized sp34 scFv BG561P (Fc fusion, not shown: a dimerising Fc or GST)
scFv: EVQLVESGGGLVQPGGSLRLSCAASGFTFNTYAMNWVRQAPGKGLEWVARIRSKYNNYATYYADSVKDRFTISRDDAKNSLYLQMNSLRAEDTAVYYCVRHGNFGNSYVSWFAYWGQGTLVTVSSGGGGSGGGGSGGGGSEIVLTQSPATLSVSPGERATLSCRSSTGAVTTSNYANWVQQKPGQAPRGLIGGTNKRAPGIPARFSGSLSGDEATLTISSLQSEDFAVYYCALWYSNLWVFGGGTKVEIK

Columns and labels:
CD3ε/δ [1] = biological target: CD3ε/δ (UniProt P07766); assay: SPR, antibody captured on anti-human Fc surface
CD3ε/δ [2] = biological target: CD3ε/δ (UniProt P07766); assay: SPR

CD3ε/δ, sequence (P07766 23-126, stated change not applied, chain 1 of 2): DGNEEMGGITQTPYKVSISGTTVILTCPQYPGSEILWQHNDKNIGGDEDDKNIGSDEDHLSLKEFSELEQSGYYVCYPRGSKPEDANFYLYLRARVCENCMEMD
CD3ε/δ, sequence (P04234 22-105, stated change not applied, chain 2 of 2, further chain): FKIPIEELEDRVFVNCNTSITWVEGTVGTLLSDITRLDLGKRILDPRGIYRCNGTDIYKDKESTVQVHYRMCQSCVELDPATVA

Binder	Kd (CD3ε/δ [1])	koff (CD3ε/δ [1])	kon (CD3ε/δ [1])	Kd (CD3ε/δ [2])	koff (CD3ε/δ [2])	kon (CD3ε/δ [2])
B1	27.1 nM	0.00296 s⁻¹	109000 M⁻¹ s⁻¹			
B2				25.9 nM	0.00188 s⁻¹	72500 M⁻¹ s⁻¹
